Here are results for 1 variant from IntAct's records for PubMed 17159996.

To fix the notation:
B1: Tyrosine-protein phosphatase non-receptor type 1 (Homo sapiens), P18031 (parent)
chain: MEMEKEFEQIDKSGSWAAIYQDIRHEASDFPCRVAKLPKNKNRNRYRDVSPFDHSRIKLHQEDNDYINASLIKMEEAQRSYILTQGPLPNTCGHFWEMVWEQKSRGVVMLNRVMEKGSLKCAQYWPQKEEKEMIFEDTNLKLTLISEDIKSYYTVRQLELENLTTQETREILHFHYTTWPDFGVPESPASFLNFLFKVRESGSLSPEHGPVVVHCSAGIGRSGTFCLADTCLLLMDKRKDPSSVDIKKVLLEMRKFRMGLIQTADQLRFSYLAVIEGAKFIMGDSSVQDQWKELSHEDLEPPPEHIPPPPRPPKRILEPHNGKCREFFPNHQWVKEETQEDKDCPIKEEKGSPLNAAPYGIESMSQDTEVRSRVVGGSLRGAQAASPAKGEPSLPEKDEDHALSYWKPFLVNMCVATVLTAGAYLCYRFLFNSNT

In this test the parent is B1. Conditions: with insr_human INSR.
Regarding MEMEKEFEQIDKSGSWAAIYQDIRHEASDFPCRVAKLPKNKNRNRYRDVSPFDHSRIKLHQEDNDYINASLIRMEEAQRSYILTQGPLPNTCGHFWEMVWEQKSRGVVMLNRVMEKGSLKCAQYWPQKEEKEMIFEDTNLKLTLISEDIKSYYTVRQLELENLTTQETREILHFHYTTWPDFGVPESPASFLNFLFKVRESGSLSPEHGPVVVHCSAGIGRSGTFCLADTCLLLMDKRKDPSSVDIKKVLLEMRKFRMGLIQTADQLRFSYLAVIEGAKFIMGDSSVQDQWKELSHEDLEPPPEHIPPPPRPPKRILEPHNGKCREFFPNHQWVREETQEDKDCPIREEKGSPLNAAPYGIESMSQDTEVRSRVVGGSLRGAQAASPARGEPSLPEKDEDHALSYWKPFLVNMCVATVLTAGAYLCYRFLFNSNT [K73R;K335R;K347R;K389R], the “effect of a mutation on the interaction” value is reported as “decreasing interaction”.
